This is an account of results in publication PMC5675595.

The chains are these.
B1: FLAG-tagged IRAK2 WT [mouse] / ALYREF [human (endogenous in IL1R-293 and HeLa)] (parent)
chain 1: MACYIYQLPSWVLDDLCRNIDTLSEWDWMQFASYVITDLTQLRKIKSMERVQGVSITRELLWWWSMRQATVQQLVDLLCHLELYRAAQIVLSWKPVPESTSPLPAFPEAVKPGAVATSRRNLKDEQEKVRPVKPRSLLDTGPIMAGAQRQRPCEMDAPCSLKTDAPDSPQSKYCSTSTSAPKQERLLGLPGDRLFWSEADVVQATEDFDQSHRISEGTFADIYQGQRNGVAFAFKKLREVAGSSPGSMDRFLQAEMQLCLRCCHANVLPLLGFCTGRQFHSLIYPYMANGSLHDRLWAQGNSDMLPWPQRASICSGLLLAVEHLHSLDIIHSNVKSANVLLDQHLNPKLAHPVAHPHPDNKKTKYTVMRTHLFQASAAYLPEHFIRVGQLTKQVDIFSCGIVLAEVLTGIPAMDKDRSPVYLKDLLLSEIPNSTSSVCSRKTSMGKAVVKEICQRHVEKRAGLLPEACEEAWATAVSVCLRRRNASVEEARVSLAGVEEQLRGQLSLPWSRVSEATGSSSNTPEETDDVDNSSLSVPSLVMMASCPGAASSPLFTGHGAAQPSTSGRQEADSSSEACTGPQTPQNATETSWKIEINEAKRRLMENIVLYKEERLDSSELFGP
chain 2: not shown

The variants in this assay derive from B1. In words: proximity ligation assay (PLA). Particulars: with ALYREF [human (endogenous in IL1R-293 and HeLa)]; Hela cells transfected; Mouse anti-ALYREF and Rabbit anti-FLAG antibody; read off a plot.
Take chain 1 K361A K362A K364A: the response (% PLA positive cells) was determined as 0.6.

As for chain 1 K235A K236A, the response (% PLA positive cells) came out at 0.2.

chain 1 K123R K182R K592R: the response (% PLA positive cells) is 0.45.
